Experiment [1] deals with T1, human CLDN6 (claudin 6), full length (human, UniProt P56747 1-220).
T1 construct: denatured cell lysate in the Western blot; also called NP 067018.2
T1 sequence: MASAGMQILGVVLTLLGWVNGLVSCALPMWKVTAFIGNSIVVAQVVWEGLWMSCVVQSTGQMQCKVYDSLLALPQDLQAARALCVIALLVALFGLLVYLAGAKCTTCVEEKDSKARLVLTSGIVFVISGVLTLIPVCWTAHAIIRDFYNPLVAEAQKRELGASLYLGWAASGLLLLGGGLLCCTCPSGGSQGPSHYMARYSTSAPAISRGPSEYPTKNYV
Nature of the experiment: flow cytometry, saturation binding on HEK293 cells stably expressing human CLDN6, median fluorescence. (In general: A flow cytometer gives signals particle by particle.)
Experimental: (§1) The binding of CLDN6-specific chimeric monoclonal antibodies to cells expressing the target was analyzed by flow cytometry. Therefore, cells were harvested with 0.05% Trypsin/EDTA, washed with FACS buffer (PBS containing 2% FCS and 0.1% sodium azide) and resuspended in FACS buffer at a concentration of 2×10⁶ cells/ml. 100 pl of the cell suspension were incubated with the appropriate antibody at indicated concentrations for 30 min at 4° C. […] The cells were washed twice and resuspended in FACS buffer. The binding was analyzed by flow cytometry using a BD FACSArray.

The target of experiment [2] is T2, human CLDN3 (claudin 3) (human, UniProt O15551 1-220).
T2 sequence: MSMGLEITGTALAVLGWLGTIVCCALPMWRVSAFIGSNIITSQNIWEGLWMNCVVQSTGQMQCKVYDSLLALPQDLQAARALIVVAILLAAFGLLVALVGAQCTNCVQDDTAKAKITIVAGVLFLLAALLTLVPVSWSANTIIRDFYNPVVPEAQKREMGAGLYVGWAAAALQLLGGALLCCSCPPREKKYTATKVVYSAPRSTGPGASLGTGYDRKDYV
Briefly: flow cytometry, HEK293 cells stably expressing the claudin.
Experimental: (§2) To test the specificities and affinities of CLDN6-specific chimeric monoclonal antibodies binding to HEK293 cells stably transfected with CLDN3, 4, 6 or 9, respectively, and tumor cell lines that endogenously express CLDN6 was analyzed by flow cytometry. Therefore, cells were harvested with 0.05% Trypsin/EDTA, washed with FACS buffer (PBS containing 2% FCS and 0.1% sodium azide) and resuspended in FACS buffer at a concentration of 2×10⁶ cells/ml. 100 μl of the cell suspension were incubated with the appropriate antibody at indicated concentrations for 60 min at 4° C. A chimeric cross-reactive antibody (chimAB 5F2D2) was used to detect CLDN6 and CLDN9 expression. […] The cells were washed twice and resuspended in FACS buffer. The binding was analyzed by flow cytometry using a BD FACSArray.

Experiment [3] deals with T3, human CLDN4 (claudin 4) (human, UniProt O14493 1-209).
T3 sequence: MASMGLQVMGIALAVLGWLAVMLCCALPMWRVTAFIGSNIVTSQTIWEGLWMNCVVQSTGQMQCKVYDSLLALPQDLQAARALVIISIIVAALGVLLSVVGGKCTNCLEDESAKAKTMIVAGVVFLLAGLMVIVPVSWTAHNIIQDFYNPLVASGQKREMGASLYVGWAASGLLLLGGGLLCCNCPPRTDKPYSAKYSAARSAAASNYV
The experiment is described as above.
Experimental: as §2

The target in experiment [4] is T4, human CLDN9 (claudin 9) (human, UniProt O95484 1-217).
T4 sequence: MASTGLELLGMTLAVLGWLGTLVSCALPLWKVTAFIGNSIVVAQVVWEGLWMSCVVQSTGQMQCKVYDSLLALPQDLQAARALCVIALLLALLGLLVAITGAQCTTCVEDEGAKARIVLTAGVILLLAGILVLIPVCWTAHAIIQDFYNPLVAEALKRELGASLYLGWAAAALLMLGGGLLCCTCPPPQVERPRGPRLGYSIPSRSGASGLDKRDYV
Described as above.
Experimental: as §2

For experiment [5], the target named is T2, human CLDN3 (claudin 3). Briefly: flow cytometry, HEK293T cells transiently co-transfected with the claudin and a fluorescence reporter.
Experimental: (§3) To test the binding of monoclonal antibodies to CLDN6 and its homologous HEK293T cells were transiently transfected with the corresponding claudin-coding plasmid and the expression was analyzed by flow cytometry. In order to differentiate between transfected and non-transfected cells, HEK293T cells were co-transfected with a fluorescence marker as a reporter. 24 h post transfection cells were harvested with 0.05% trypsin/EDTA, washed with FACS buffer (PBS containing 2% FCS and 0.1% sodium azide) and resuspended in FACS buffer at a concentration of 2×10⁶ cells/ml. 100 μl of the cell suspension were incubated with the appropriate antibody at indicated concentrations for 30 min at 4° C. […] The cells were washed twice and resuspended in FACS buffer. The binding was analyzed by flow cytometry using a BD FACSArray. The expression of the fluorescence marker was plotted on the horizontal axis against the antibody binding on the vertical axis.
Experiment [6] deals with T3, human CLDN4 (claudin 4). The experiment is described as above.
Experimental: as §3
For experiment [7], the target named is T4, human CLDN9 (claudin 9). The experiment is described as above.
Experimental: as §3
Experiment [8] concerns the target T1, human CLDN6 (claudin 6), full length. Nature of the experiment: flow cytometry on NEC8 testicular cancer cells endogenously expressing CLDN6, median fluorescence.
Experimental: as §1
The target is the same in experiment [9]. Nature of the experiment: flow cytometry, NEC8 testicular cancer cells endogenously expressing human CLDN6.
Experimental: as §1
Experiment [10] shares this target. Briefly: flow cytometry on OV90 ovarian cancer cells endogenously expressing CLDN6, median fluorescence.
Experimental: as §1
In experiment [11] the target is T2, human CLDN3 (claudin 3). Nature of the experiment: flow cytometry, HEK293T cells transiently co-transfected with the claudin and a fluorescence reporter. The source holds these as a separate data set.
Experiment [12] has as its target T4, human CLDN9 (claudin 9). The experiment is described as above. This is another data set of the same source.
Experiment [13] has as its target T3, human CLDN4 (claudin 4). The experiment is described as above. This is another data set of the same source.

B1: chimeric monoclonal antibody chimAB 64A (antibody, human IgG1, kappa, V domains shown)
VH: EVQLQQSGPELVKPGASMKISCKASGYSFTGYTMNWVKQSHGKNLEWIGLINPYNGGTIYNQKFKGKATLTVDKSSSTAYMELLSLTSEDSAVYYCARDYGFVLDYWGQGTTLTVSS
VL: QIVLTQSPSIMSVSPGEKVTITCSASSSVSYMHWFQQKPGTSPKLCIYSTSNLASGVPARFSGRGSGTSYSLTISRVAAEDAATYYCQQRSNYPPWTFGGGTKLEIKR
notes: Mouse/human chimeric IgG1, kappa
B1: in experiment [1], the “EC50 (read off the curve)” value is around 0.2 µg/mL. The binding result in experiment [2] and in experiment [3] was “no binding (tested: 25 µg/ml (legend))” each time.

B2: chimeric monoclonal antibody chimAB 61D (antibody, human IgG1, kappa, V domains shown)
VH: EVQLQQSGPELVKPGASMKISCKASGYSFTGYTMNWVKQSHGKNLEWIGLINPYNGGTSYNQKFKGKATLTIDKSSSTAYMELLSLTSEDSAVYYCARDYGYVLDYWGQGTTLTVSS
VL: QIVLTQSPAIMSASPGEKVTITCSASSSVSYLHWFQQKPGTSPKLWVYSTSNLPSGVPARFGGSGSGTSYSLTISRMEAEDAATYYCQQRSIYPPWTFGGGTKLEIKR
notes: as for B1
As to B2, the binding result in experiment [2], in experiment [3] and in experiment [4] was “no binding (tested: 25 µg/ml (legend))” each time.

B3: murine monoclonal antibody muMAB 61D (antibody, mouse IgG2a, V domains shown)
VH: EVQLQQSGPELVKPGASMKISCKASGYSFTGYTMNWVKQSHGKNLEWIGLINPYNGGTSYNQKFKGKATLTIDKSSSTAYMELLSLTSEDSAVYYCARDYGYVLDYWGQGTTLTVSS
VL: QIVLTQSPAIMSASPGEKVTITCSASSSVSYLHWFQQKPGTSPKLWVYSTSNLPSGVPARFGGSGSGTSYSLTISRMEAEDAATYYCQQRSIYPPWTFGGGTKLEIK
notes: the assignment is an inference; also called GT512muMAB 61D; DSM ACC3069
As to B3, the binding result in [5], in experiment [6] and in experiment [7] was “no binding (tested: 25 µg/ml (legend))” in each case.

B4: murine monoclonal antibody muMAB 64A (antibody, mouse IgG2a, V domains shown)
VH: EVQLQQSGPELVKPGASMKISCKASGYSFTGYTMNWVKQSHGKNLEWIGLINPYNGGTIYNQKFKGKATLTVDKSSSTAYMELLSLTSEDSAVYYCARDYGFVLDYWGQGTTLTVSS
VL: QIVLTQSPSIMSVSPGEKVTITCSASSSVSYMHWFQQKPGTSPKLCIYSTSNLASGVPARFSGRGSGTSYSLTISRVAAEDAATYYCQQRSNYPPWTFGGGTKLEIK
notes: also called GT512muMAB 64A; DSM ACC3070
Turning to B4, the binding result in experiment [5] and in experiment [6] was “no binding (tested: 25 µg/ml (legend))” in each case.

B5: chimeric monoclonal antibody mAb206-LCC (antibody, human IgG1, kappa, V domains shown)
VH: EVQLQQSGPELVKPGASMKISCKASGYSFTGYTMNWVKQSHGKNLEWIGLINPYNGGTIYNQKFKGKATLTVDKSSSTAYMELLSLTSEDSAVYYCARDYGFVLDYWGQGTTLTVSS
VL: QIVLTQSPAIMSASPGEKVTITCSASSSVSYLHWFQQKPGTSPKLWVYSTSNLPSGVPARFGGSGSGTSYSLTISRMEAEDAATYYCQQRSIYPPWTFGGGTKLEIKR
notes: inferred; also called light-chain combination variant
As to B5, the 50% effective concentration (EC50 (read off the curve)) in experiment [8] was around 0.2 µg/mL; in [1] it was around 0.2 µg/mL; in experiment [10], around 0.4 µg/mL. Also, the “fold stronger binding affinity compared to chimAB 64A, mAb206-SUBG and mAb206-SUBS” value in experiment [9] was 3 fold. For the same molecule, the binding result in experiment [11] and in experiment [12] was “no binding” in each case.

B6: chimeric monoclonal antibody mAb206-SUBS (antibody, human IgG1, kappa, V domains shown)
VH: EVQLQQSGPELVKPGASMKISCKASGYSFTGYTMNWVKQSHGKNLEWIGLINPYNGGTIYNQKFKGKATLTVDKSSSTAYMELLSLTSEDSAVYYCARDYGFVLDYWGQGTTLTVSS
VL: QIVLTQSPSIMSVSPGEKVTITCSASSSVSYMHWFQQKPGTSPKLSIYSTSNLASGVPARFSGRGSGTSYSLTISRVAAEDAATYYCQQRSNYPPWTFGGGTKLEIKR
notes: Chimeric IgG1, kappa; also called amino acid substitution variant (C46S)
For B6, the “EC50 (read off the curve)” value in [8] is around 0.5 µg/mL; in [1], around 0.2 µg/mL; in experiment [10], around 0.5 µg/mL. Besides, the binding result in experiment [11], in [13] and in [12] was “no binding” throughout.

B7: chimeric monoclonal antibody mAb206-SUBG (antibody, human IgG1, kappa, V domains shown)
VH: EVQLQQSGPELVKPGASMKISCKASGYSFTGYTMNWVKQSHGKNLEWIGLINPYNGGTIYNQKFKGKATLTVDKSSSTAYMELLSLTSEDSAVYYCARDYGFVLDYWGQGTTLTVSS
VL: QIVLTQSPSIMSVSPGEKVTITCSASSSVSYMHWFQQKPGTSPKLGIYSTSNLASGVPARFSGRGSGTSYSLTISRVAAEDAATYYCQQRSNYPPWTFGGGTKLEIKR
notes: Chimeric IgG1, kappa; also called amino acid substitution variant (C46G)
Take B7: the “EC50 (read off the curve)” value is around 0.5 µg/mL in experiment [8], around 0.2 µg/mL in experiment [1] and around 0.5 µg/mL in experiment [10]. Besides, the binding result in [11], in experiment [13] and in experiment [12] was “no binding” in each case.

The EC50 (read off the curve) is the concentration at which the effect is half-maximal. Read a low EC50 (read off the curve) as greater potency.
